{
  "source": "patent US20100298217A1",
  "about": "(published 2010)",
  "key": {"[1]": {"target": "T1, mouse CSF-1R C432S/C439S mutant expressed on M-/- macrophages (M-/-.C432/439SCSF-1R cells) (mouse, UniProt P09581 20-977)", "T1 construct": "Full-length mutant receptor, retrovirally transduced into MacCsf1r-/- cells; also called mutant CSF-1R", "T1 sequence": "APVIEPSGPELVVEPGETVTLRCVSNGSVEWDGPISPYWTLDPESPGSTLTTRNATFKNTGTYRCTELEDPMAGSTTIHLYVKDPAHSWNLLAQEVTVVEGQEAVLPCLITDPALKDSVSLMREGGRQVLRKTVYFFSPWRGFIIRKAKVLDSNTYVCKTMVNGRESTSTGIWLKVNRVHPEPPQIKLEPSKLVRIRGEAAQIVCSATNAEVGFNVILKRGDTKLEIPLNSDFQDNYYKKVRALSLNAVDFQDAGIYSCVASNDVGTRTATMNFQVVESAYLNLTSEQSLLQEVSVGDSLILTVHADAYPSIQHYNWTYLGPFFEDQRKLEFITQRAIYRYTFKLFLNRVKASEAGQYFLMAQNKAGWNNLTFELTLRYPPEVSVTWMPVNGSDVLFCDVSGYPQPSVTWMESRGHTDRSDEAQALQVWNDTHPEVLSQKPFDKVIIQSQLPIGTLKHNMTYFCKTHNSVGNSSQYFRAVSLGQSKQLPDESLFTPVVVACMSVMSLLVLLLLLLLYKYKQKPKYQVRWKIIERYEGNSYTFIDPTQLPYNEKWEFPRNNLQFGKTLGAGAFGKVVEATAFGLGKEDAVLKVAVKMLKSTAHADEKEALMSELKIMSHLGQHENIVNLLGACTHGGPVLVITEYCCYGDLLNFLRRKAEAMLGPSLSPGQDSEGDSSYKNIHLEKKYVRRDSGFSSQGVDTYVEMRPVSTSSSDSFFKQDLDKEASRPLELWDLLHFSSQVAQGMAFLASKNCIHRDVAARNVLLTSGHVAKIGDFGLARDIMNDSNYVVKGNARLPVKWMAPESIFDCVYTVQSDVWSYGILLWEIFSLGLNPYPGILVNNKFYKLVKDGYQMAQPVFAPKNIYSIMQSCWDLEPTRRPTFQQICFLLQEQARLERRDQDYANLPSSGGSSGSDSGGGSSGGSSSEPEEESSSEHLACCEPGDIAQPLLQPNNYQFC", "assay": "CSF-1 binding to upregulated cells carrying the receptor, FIG. 14"}, "[2]": {"target": "T1, mouse CSF-1R C432S/C439S mutant …", "assay": "cell-based or functional assay"}},
  "data": [
    {"binder": "purified human recombinant CSF-1 (ligand, UniProt P09603 36-253, looked up, also called human CSF-1; colony stimulating factor-1) SEYCSHMIGSGHLQSLQRLIDSQMETSCQITFEFVDQEQLKDPVCYLKKAFLLVQDIMEDTMRFRDNTPNAIAIVQLQELSLRLKSCFTKDYEEHDKACVRTFYETPLQLLEKVKNVFNETKNLLDKDWNIFSKNCNNSFAECSSQDVVTKPDCNCLYPKAIPSSDPASVSPHQPLAPSMAPVAGLTWEDSEGTEGSSLLPGEQPLHTVDPGSAKQRP", "values": [
      {"measurement": "maximum CSF-1 binding relative to WT CSF-1R", "setting": "[1]", "value": "~70", "unit": "%"},
      {"measurement": "fold decrease in CSF-1-induced tyrosine phosphorylation and ubiquitination of cells starved of CSF-1 for 24 h", "setting": "[2]", "value": "~5", "unit": "fold"}
    ]}
  ]
}
